Source: paper PMC5658359, “A potent small-molecule inhibitor of the DCN1-UBC12 interaction that selectively blocks cullin 3 neddylation” (Nature Communications, 2017)
Primed or numbered codes have the meaning given here. Where no end group is shown, it is not given here. [ ]: non-standard residue; d: D form. Ala(benzothiazol-2-yl)′ = not defined here; Phe(2-Cl) = N[C@@H](Cc1ccccc1Cl)C(=O)O; 1Nal = N[C@@H](Cc1cccc2ccccc12)C(=O)O; 2Nal = N[C@@H](Cc1ccc2ccccc2c1)C(=O)O; hPhe = N[C@@H](CCc1ccccc1)C(=O)O

Target: T1, human DCN1 (residues 58–259), N-terminal His6 tag (human, UniProt Q96GG9 58-259)
T1 construct: DCN1 (defective in cullin neddylation 1), human, residues 58-259, cloned into pDEST17; residues 60-251 are visible in PDB 5UFI; also called defective in cullin neddylation 1; source: Rosetta2 cells, purified (Ni-NTA, Superdex 75); not shown: His6, N-terminal, kept
T1 sequence (Q96GG9 58-259): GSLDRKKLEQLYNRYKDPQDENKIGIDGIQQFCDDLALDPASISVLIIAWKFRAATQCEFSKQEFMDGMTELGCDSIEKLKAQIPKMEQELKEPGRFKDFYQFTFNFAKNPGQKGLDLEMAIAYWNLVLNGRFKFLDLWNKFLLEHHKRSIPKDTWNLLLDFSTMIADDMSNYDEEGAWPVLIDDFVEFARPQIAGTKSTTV
Experiment: fluorescence polarisation; competitive: peptide added to pre-incubated DCN1 (50 nM) and FAM-labelled small-molecule probe 46 (5 nM); 100 mM phosphate buffer pH 6.5, 0.02% Tween-20, 2% DMSO; room temperature, 30 min; Ki calculated from IC50
Details: both partners purified

## [Phe(2-Cl)]IKL [compound 13 (11 with Cl at the ortho position of the phenyl ring)]
  fold decrease in binding affinity (against 11): 3 fold

B1: UBC12 peptide 7 (peptide, UniProt P61081 1-6, looked up)
peptide: MIKLFS
notes: UBC12, N-terminal 6 residues (Met1 to Ser6; Leu7 removed from 6); Terminal groups surmised Ac-...-NH2; source: synthetic peptide
  fold loss in binding affinity (against 6): 3 fold

B2: UBC12 peptide 2 (peptide 1 without Lys12) (peptide, UniProt P61081 1-11, looked up)
peptide: MIKLFSLKQQK
notes: UBC12, N-terminal 11 residues (truncation of Lys12 from the 12-residue peptide); Terminal groups surmised Ac-...-NH2; source: synthetic peptide
  binding result: binds

## [Ala(benzothiazol-2-yl)′]IKL [compound 24 (11 with the phenyl replaced by benzothiazol-2-yl)]
  Ki: 150 nM

## [Ala(5-Cl-benzothiazol-2-yl)]IKL [compound 25 (24 with 5-Cl on the benzothiazol-2-yl)]
  fold less potent than 24: 17 fold

B3: UBC12 peptide 3 (peptide, UniProt P61081 1-10, looked up)
peptide: MIKLFSLKQQ
notes: Terminal groups surmised Ac-...-NH2; source: synthetic peptide
  binding result: binds

## [2Nal]IKL [compound 23 (11 with the phenyl replaced by naphthalen-2-yl)]
  fold more potent than 11: 11 fold

## [Ala(6-isopropyl-benzothiazol-2-yl)]IKL [compound 27 (26 with the 6-Cl replaced by an isopropyl group)]
  Ki: 5 nM

## [hPhe]IKL [compound 12 (tetrapeptide 9 with Met1 replaced by homophenylalanine)]
  fold decrease in binding affinity (reference not named: 9 or 11): 6 fold

## [Ala(6-Cl-benzothiazol-2-yl)]IKL [compound 26 (24 with 6-Cl on the benzothiazol-2-yl)]
  fold more potent than 24: 4 fold

B4: UBC12 seven-residue peptide (6) (peptide, UniProt P61081 1-7, looked up)
peptide: MIKLFSL
notes: UBC12, N-terminal 7 residues (Met1 to Leu7; Lys8 removed from 5); Terminal groups surmised Ac-...-NH2; source: synthetic peptide
  fold loss in binding affinity (against 5): 3 fold

B5: UBC12 peptide 4 (peptide, UniProt P61081 1-9, looked up)
peptide: MIKLFSLKQ
notes: as for B3
  binding result: binds

## [1Nal]IKL [compound 22 (11 with the phenyl replaced by naphthalen-1-yl)]
  Ki: 354000 nM

B6: UBC12 peptide 5 (peptide, UniProt P61081 1-8, looked up)
peptide: MIKLFSLK
notes: UBC12, N-terminal 8 residues (Met1 to Lys8); Terminal groups surmised Ac-...-NH2; source: synthetic peptide
  binding result: binds

B7: UBC12 peptide 8 (peptide, UniProt P61081 1-5, looked up)
peptide: MIKLF
notes: UBC12, N-terminal 5 residues (Met1 to Phe5; Ser6 deleted from 7); Terminal groups surmised Ac-...-NH2; source: synthetic peptide
  binding result: binds
